# US8034783B2, “Prodomain modulators of ADAM 10” (Biozyme, Inc., priority 2006, dated 2011)
# Non-standard residues stand in square brackets, D forms with d. Primed or numbered codes have the meaning given here. *: point of attachment. Fluorescein = fluorescein label attached to the cysteine side chain; Dabcyl′ = CN(C)c1ccc(/N=N/c2ccc(C(=O)*)cc2)cc1; hPhe = N[C@@H](CCc1ccccc1)C(=O)O
# B1: wt ProADAM 10 23-213 (C-terminal His tag): wild type mouse ADAM 10 prodomain, amino acids 23-213, C-terminal His tag, expressed in E. coli (protein)
# chain: NPLNKYIRHYEGLSYNVDSLHQKHQRAKRAVSHEDQFLLLDFHAHGRQFNLRMKRDTSLFSDEFKVETSNKVPDYDTSHIYTGHIYGEEGSFSHGSVIDGRFEGFIKTRGGTFYIEPAERYIKDRILPFHSVIYHEDDINYPHKYGPQGGCADHSVFERMRKYQMTGVEEGARAHPEKHAASSGPELLRKKHHHHHH
# B2: wt ProADAM 10 23-213 (N-terminal His tag): wild type mouse ADAM 10 prodomain, amino acids 23-213, N-terminal His tag, expressed in E. coli (protein)
# chain: NPLNKYIRHYEGLSYNVDSLHQKHQRAKRAVSHEDQFLLLDFHAHGRQFNLRMKRDTSLFSDEFKVETSNKVPDYDTSHIYTGHIYGEEGSFSHGSVIDGRFEGFIKTRGGTFYIEPAERYIKDRILPFHSVIYHEDDINYPHKYGPQGGCADHSVFERMRKYQMTGVEEGARAHPEKHAASSGPELLRKK
# modifications: left off: small tags and cut ends
# notes: wild type mouse ADAM 10 prodomain, amino acids 23-213, N-terminal His tag, expressed in E. coli
# B3: Pro ADAM 17 (mouse): prodomain of mouse TACE (ADAM 17), residues 18-214, His-tagged, expressed in E. coli (protein)
# chain: PRPPEEAGSGSHPRLEKLDSLLSDYDILSLANIQQHSIRKRDLQSATHLETLLTFSALKRHFKLYLTSSTERFSQNLRVVVVDGKEESEYSVKWQNFFSGHVVGEPDSRVLAHIGDDDVTVRINTDGAEYNVEPLWRFVNDTKDKRMLVYKSEDIKDFSRLQSPKVCGYLNADSEELLPKGLIDREPSEEFVRRVKR
# modifications: left off: small tags and cut ends
# notes: prodomain of mouse TACE (ADAM 17), residues 18-214, His-tagged, expressed in E. coli
# Assays:
# ADAM 10 (human) Cat/Dis = target: T1, ADAM 10 (human) Cat/Dis (Homo sapiens, UniProt O14672); assay: Inhibition assay with ADAM10 catalytic/disintegrin construct, fluorescent substrate; type: biochemical
# T1 construct: containing the catalytic/disintegrin domains; purchased R & D Systems (Minneapolis, Minn., USA)
# T1 sequence (O14672 214-672 limits assumed): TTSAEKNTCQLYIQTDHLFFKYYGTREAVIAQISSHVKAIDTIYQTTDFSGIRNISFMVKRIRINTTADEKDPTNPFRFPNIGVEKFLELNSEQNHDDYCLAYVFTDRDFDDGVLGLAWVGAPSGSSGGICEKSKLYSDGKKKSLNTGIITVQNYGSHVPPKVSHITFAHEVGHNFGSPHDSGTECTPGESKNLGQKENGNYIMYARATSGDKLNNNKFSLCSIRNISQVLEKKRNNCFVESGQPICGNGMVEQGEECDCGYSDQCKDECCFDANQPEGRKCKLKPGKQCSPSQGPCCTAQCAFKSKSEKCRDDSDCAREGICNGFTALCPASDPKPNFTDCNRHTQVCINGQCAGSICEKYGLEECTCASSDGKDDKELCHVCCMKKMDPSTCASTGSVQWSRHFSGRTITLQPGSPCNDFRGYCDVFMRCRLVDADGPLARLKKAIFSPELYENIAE
# Procedure: (§1) Inhibition assays with TACE and ADAM 10. Activity of TACE catalytic/disintegrin, TACE catalytic, or ADAM10 catalytic/disintegrin constructs was monitored at 3 minute intervals using the fluorescent substrate, Dabcyl-LAQAHomoPheRSC(Fluorescein)-NH2 (SEQ ID NO 17) with excitation 485 nm and emission 530 nm. The substrate was diluted from a 10 mM stock in DMSO to 10 μM in assay buffer containing 20 mM Tris, pH 8.0, and 0.0006% Brij-35. Reactions were run in a 96-well black-coated plate with either ADAM10 prodomain (10 nM-1.0 μM) alone or with enzyme. Concentrations of enzyme ranged from 0.5-2.0 nM for TACE and 5-15 nM for ADAM10. For assays with TACE and ADAM8 prodomain, the range of concentrations varied from 1-4.7 μM.
# (§2) Calculation of inhibition constants. The amount of activity was calculated by subtracting the ADAM 10 prodomain control from the ADAM 10 prodomain with enzyme. All inhibition assays were performed at room temperature and the data fit to the following equation using Sigma Plot software:
# (§3) [formula] where If is fractional inhibition, I is the inhibitor concentration and Ki is the inhibition constant.
# Wild type ADAM 10 prodomain (23-213) was tested to determine the mode of inhibition of ADAM 10 protein. ADAM 10 protein was diluted 1:100 in buffer 25 mM Tris pH 8, 0.0006% Brij-35 and then 10 μl was added to 88 μl of substrate (20-100 μM), Dabcyl-LAQAHomoPheRSC(Fluorescein)-NH2 with excitation 485 nm and emission 530 nm. Prodomain, 2 μl, in 25 mM Tris, pH 8, 100 mM NaCl, 10% glycerol, 0.1% mercaptoethanol, and 50 μM CaCl2 was added to substrate before addition of enzyme. The final concentration of prodomain ranged from 17-170 nM. The fluorescence vs time was plotted, and slopes were taken from straight line fits of initial velocities. The reciprocal of the velocities was plotted vs the reciprocal of substrate squared since the normal Lineweaver Burke plot gave curved lines. The initial velocities vs substrate concentrations were fit as a family of curves to several allosteric models.
# MMP 1, 2, 3, 9, 13, 14 = assay: Inhibition assays with MMPs; type: biochemical; conditions: 3 μM prodomain
# Procedure: Inhibition assays with MMPs. The fluorescent substrate Dabcyl-GPLGMRGC (Fluorescein)-NH2 (SEQ ID NO 18) (10 μM) in assay buffer containing 50 mM Tris, pH 7.5, 150 mM NaCl, 2 mM CaCl2, 5 μM ZnSO4, and 0.01% Brij-35 was used to monitor enzyme activities. MMPs 1, 2, 3, 9, 13, and 14 (0.1-20 nM) were incubated with substrate in the absence or presence of prodomain (3-30 μM). Fluorescence intensities were measured every 3-5 minutes at an emission wavelength of 530 nm (excitation 485 nm).
# as §2, §3
# CD23 shedding in B cells = assay: CD23 shedding in B cells, flow cytometry; type: cell-based; conditions: 1-5 μM, 12 hr
# Procedure: The CD23 sheddase activity of ADAM 10 protein was further tested in a B-cell assay. B-cells were cultured for 12 hr in the presence or absence of IL-4 (100 ng/ml), wild type C-terminal His tagged ADAM 10 (23-213) (1-5 μM) or match diluent control (25 mM Tris-HCl pH 8, 100 mM NaCl, 10% glycerol, 0.1% β-mercaptoethanol). Cells were stained for expression of surface antigens following washing with 1% BSA/PBS. Cells were incubated for 30 minutes at 4° C. in the dark with fluorochrome-conjugated mAbs: APC-CD19 (CALTAG, Burlingame, Calif.), CD23-PE, mlgG1-PE (BD Biosciences) before washing to remove unbound mAb. Cells were resuspended in PBS and immediately analyzed with the use of the FACS Calibur (BD Biosciences). The software program FlowJo (Ashland, Oreg.) was used to analyze data generated by flow cytometry.
# TACE (human) Cat = target: T2, TACE (human) Cat (Homo sapiens, UniProt P78536); assay: Inhibition assay with TACE catalytic domain, fluorescent substrate; type: biochemical; conditions: at 3.5 μM
# T2 construct: TACE catalytic domain, Marcos Milla, University of Pennsylvania; donated by Marcos Milla, University of Pennsylvania
# Procedure: as §1, §2, §3
# TACE (human) Cat/Dis = target: T3, TACE (human) Cat/Dis (Homo sapiens, UniProt P78536); assay: Inhibition assay with TACE catalytic/disintegrin construct, fluorescent substrate; type: biochemical
# T3 construct: containing the catalytic/disintegrin domains; purchased R & D Systems (Minneapolis, Minn., USA)
# Procedure: as §1, §2, §3
# [1] = target: T4, ADAM 8 (mouse) catalytic domain (Mus musculus, UniProt Q05910); assay: Inhibition assay with ADAM 8 catalytic domain; type: biochemical; conditions: at 1.7 μM
# T4 construct: The ADAM 8 catalytic domain was expressed and purified from E. coli as described (22); made in house; host or cells: E. coli
# T4 sequence (Q05910 196-395 limits assumed): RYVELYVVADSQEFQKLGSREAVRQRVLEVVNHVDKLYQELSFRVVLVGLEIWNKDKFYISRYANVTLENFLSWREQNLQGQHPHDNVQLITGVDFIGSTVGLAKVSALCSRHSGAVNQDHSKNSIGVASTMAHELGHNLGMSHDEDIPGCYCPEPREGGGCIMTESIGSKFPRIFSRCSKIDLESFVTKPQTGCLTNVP
# Procedure: Inhibition assays with ADAM 8. The ADAM 8 catalytic domain was expressed and purified from E. coli as described (22). A substrate based on the L-selectin cleavage site, Dnp-INorIeuQKLDKSFSMIKE-NH2 (SEQ ID NO 20), was used to monitor enzyme activity with a fluorescamine assay. From a concentrated 50 mM solution in DMSO, the substrate was diluted 1:500 in 25 mM HEPES, pH 8.0, 0.0006% Brij-35. To 100 μl of diluted substrate was added either 5 μl of buffer (Tris, pH 8.0, 150 mM KCl) or 5 μl of ADAM10 prodomain (1-10 μM). Zero time points were taken by diluting 12.5 μl of the reaction mixture into 100 μl of fluorescamine buffer (50 mM HEPES, pH 8.0, 0.2 M NaCl, 0.01 M CaCl2, 0.01% Brij-35) in a 96-well black-coated plate. Before measuring fluorescence, 3 μl of a 1% solution of fluorescamine in DMSO was added to each well. The plate was allowed to incubate for 10 min in the dark before measuring fluorescence (excitation wavelength at 390 nm, emission wavelength at 485 nm). For assays with TACE and ADAM8 prodomains, a fluorescent substrate was used to monitor activity at concentrations of prodomains ranging from 1-4.7 μM.
# Calculation of inhibition constants. The amount of activity was calculated by subtracting the ADAM 10 prodomain control from the ADAM 10 prodomain with enzyme. […]
# T3 sequence (P78536 215-671 limits assumed): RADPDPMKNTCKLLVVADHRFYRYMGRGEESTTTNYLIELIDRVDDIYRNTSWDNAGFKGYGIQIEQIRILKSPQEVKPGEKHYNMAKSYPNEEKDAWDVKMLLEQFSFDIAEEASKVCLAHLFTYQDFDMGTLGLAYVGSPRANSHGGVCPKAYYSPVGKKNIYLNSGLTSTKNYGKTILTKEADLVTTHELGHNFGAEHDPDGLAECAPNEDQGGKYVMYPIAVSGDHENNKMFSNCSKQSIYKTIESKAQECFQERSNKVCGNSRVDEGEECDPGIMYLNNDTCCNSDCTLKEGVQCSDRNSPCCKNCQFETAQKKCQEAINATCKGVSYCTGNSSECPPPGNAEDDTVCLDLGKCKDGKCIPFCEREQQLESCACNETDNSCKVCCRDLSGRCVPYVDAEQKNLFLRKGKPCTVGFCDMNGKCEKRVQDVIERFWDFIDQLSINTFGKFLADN
# T2 sequence (P78536 223-474 limits assumed): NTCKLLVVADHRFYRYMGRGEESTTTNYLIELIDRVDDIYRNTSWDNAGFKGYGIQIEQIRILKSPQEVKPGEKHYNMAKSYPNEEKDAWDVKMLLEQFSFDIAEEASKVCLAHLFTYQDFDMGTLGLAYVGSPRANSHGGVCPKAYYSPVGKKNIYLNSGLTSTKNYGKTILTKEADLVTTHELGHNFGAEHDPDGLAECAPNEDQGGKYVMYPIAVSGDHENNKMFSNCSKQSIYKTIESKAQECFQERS
molecule,measurement,setting,value
"Dabcyl-LAQAHomoPheRSC(Fluorescein)-NH2 ({Dabcyl′}-LAQA[hPhe]RSC(Fluorescein)-NH2) [fluorescent substrate for TACE and ADAM10 assays, reference compound]","binding constant, Ks for substrate",ADAM 10 (human) Cat/Dis; fit to pure competitive allosteric model,16 ± 4.6 µM
B1,"inhibition of matrix metalloproteinases 1, 2, 3, 9, 13 and 14","MMP 1, 2, 3, 9, 13, 14",not inhibited
same,inhibition of shedding in B cells stimulated with IL-4,"CD23 shedding in B cells; IL-4 100 ng/ml, FIG. 2D",able to inhibit shedding
same,inhibition of shedding in B cells,"CD23 shedding in B cells; without IL-4, FIG. 2C",able to inhibit shedding
same,mode of inhibition of ADAM 10 protein,ADAM 10 (human) Cat/Dis; initial velocities fit to allosteric models,pure competitive
B2,"inhibition of matrix metalloproteinases 1, 2, 3, 9, 13 and 14","MMP 1, 2, 3, 9, 13, 14",not inhibited
B3,inhibition of TACE (human) Cat,TACE (human) Cat,37%
same,inhibition of TACE (human) Cat/Dis,TACE (human) Cat/Dis; at 3.5 μM,0%
same,inhibition of respective enzyme (TACE) by its prodomain,TACE (human) Cat/Dis; micromolar concentrations,did not inhibit
same,inhibition of ADAM 8 (mouse) Cat,[1],17% at 1.7 μM
same,inhibition of ADAM 10 (human) Cat/Dis,ADAM 10 (human) Cat/Dis; at 3.5 μM,11% at 3.5 μM
